Results on two molecules are retold here after paper doi:10.1101/2023.12.27.573415 (bioRxiv, 2023).

Experiment [1] addresses 441-residue human 2N4R tau (human, UniProt P10636-8 1-441). In words: NMR titration.
Another experiment addresses T1, FKBP51 (UniProt Q13451 1-457).
T1 sequence: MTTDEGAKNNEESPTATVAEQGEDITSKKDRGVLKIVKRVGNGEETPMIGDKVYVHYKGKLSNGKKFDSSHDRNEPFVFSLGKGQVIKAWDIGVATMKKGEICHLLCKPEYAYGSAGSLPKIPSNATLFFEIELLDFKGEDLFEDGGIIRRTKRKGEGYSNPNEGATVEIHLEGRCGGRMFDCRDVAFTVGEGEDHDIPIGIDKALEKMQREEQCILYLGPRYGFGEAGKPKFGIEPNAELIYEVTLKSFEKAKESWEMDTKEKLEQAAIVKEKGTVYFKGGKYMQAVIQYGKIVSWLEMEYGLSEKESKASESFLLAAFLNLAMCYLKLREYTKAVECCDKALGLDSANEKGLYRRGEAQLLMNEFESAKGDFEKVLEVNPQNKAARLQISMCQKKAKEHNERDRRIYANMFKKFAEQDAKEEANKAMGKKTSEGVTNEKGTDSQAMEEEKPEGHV
Description: NMR titration.

B1: p23 (human, wild type) (natural protein)
chain: MQPASAKWYDRRDYVFIEFCVEDSKDVNVNFEKSKLTFSCLGGSDNFKHLNEIDLFHCIDPNDSKHKRTDRSILCCLRKGESGQSWPRLTKERAKLNWLSVDFNNWKDWEDDSDEDMSNFDRFSEMMNNMGGDEDVDLPEVDGADDDSQDSDDEKMPDLE
B1: the binding result in experiment [1] is given as “binds”.

B2: truncated p23 (1-119) (domain or fragment)
chain: MQPASAKWYDRRDYVFIEFCVEDSKDVNVNFEKSKLTFSCLGGSDNFKHLNEIDLFHCIDPNDSKHKRTDRSILCCLRKGESGQSWPRLTKERAKLNWLSVDFNNWKDWEDDSDEDMSN
Take B2: in the experiment with FKBP51, the binding result was “binds”.
